The stoichiometry N is the number of molecules, sites or subunits per partner or assembly.

Results on 3 substances are retold here after paper PMC7150849.

Assay [1] concerns the target CHR-derived peptide C34 of HIV-1 92RW020 gp41 (HIV-1 92RW020). In words: ITC. On the technique in general: Isothermal titration calorimetry measures the heat released or taken up as one component is titrated into another.
Assay [2] deals with CHR-derived peptide C34 of HIV-1 92RW020 gp41 with the N126K mutation (HIV-1 92RW020). The assay is described as follows: ITC.
For assay [3] the target is unchanged. In words: circular dichroism spectroscopy. (Circular dichroism is widely used to follow secondary structure.)
For assay [4], the target named is CHR-derived peptide C34 of HIV-1 JRFL gp41 (HIV-1 JRFL). The assay is described as follows: ITC.
Assay [5] addresses CHR-derived peptide C34 of HIV-1 JRFL gp41 with the N126K mutation (HIV-1 JRFL). In words: ITC.
Assay [6] has the same target. In words: circular dichroism spectroscopy.
For assay [7], the target named is CHR-derived peptide C34 of HIV-1 NL4-3 gp41 with the N126K mutation (HIV-1 NL4-3). The assay is described as follows: ITC.
For assay [8] the target is unchanged. In words: circular dichroism spectroscopy.

In assay [1], “NHR-derived peptide N36 of HIV-1 92RW020 gp41” displayed a Ka of 940000 M⁻¹, a dH of -49 kcal/mol and a stoichiometry N of 1.4 Site. In assay [2], this substance displayed a Ka of 1.3e+06 M⁻¹, a dH of -55 kcal/mol and a stoichiometry N of 1 Site. Besides, in assay [3], the Tm of the complex was 62.7 °C.

In assay [4], “NHR-derived peptide N36 of HIV-1 JRFL gp41” returned a Ka of 430000 M⁻¹, a dH of -44 kcal/mol and a stoichiometry N of 1.3 Site. In assay [5], this substance registered a Ka of 1.2e+06 M⁻¹, a dH of -35 kcal/mol and a stoichiometry N of 1.4 Site. For the same substance, the Tm of the complex in assay [6] was 62.7 °C.

In assay [7], “NHR-derived peptide N36 of HIV-1 NL4-3 gp41 (from UniProt P04578 546-581)” showed a Ka of 1.9e+06 M⁻¹, a dH of -38 kcal/mol and a stoichiometry N of 1.2 Site. For the same substance, the Tm of the complex in assay [8] worked out at 68.5 °C.
